From PMC9418332, “Perforin-2 clockwise hand-over-hand pre-pore to pore transition mechanism” (Nature Communications, 2022)

Target: the molecule itself
Assay: high-speed atomic force microscopy (HS-AFM); pre-pore rings on supported E. coli lipid bilayer, buffer acidified with HCl to ~pH 4.0 in the fluid cell; imaging at 200 ms temporal resolution, room temperature; pre-pore ring openings and pore arcs

B1: Ectodomain of mPFN2 (Perforin-2) (domain or fragment, mouse (printed as mPFN2), UniProt A1L314 20-652, looked up)
chain: DKPLGETGTTGFQICKNALKLPVLEVLPGGGWDNLRNVDMGRVMDLTYTNCKTTEDGQYIIPDEVYTIPQKESNLEMNSEVLESWMNYQSTTSLSINTELALFSRVNGKFSTEFQRMKTLQVKDQAVTTRVQVRNRIYTVKTTPTSELSLGFTKALMDICDQLEKNQTKMATYLAELLILNYGTHVITSVDAGAALVQEDHVRSSFLLDNQNSQNTVTASAGIAFLNIVNFKVETDYISQTSLTKDYLSNRTNSRVQSFGGVPFYPGITLETWQKGITNHLVAIDRAGLPLHFFIKPDKLPGLPGPLVKKLSKTVETAVRHYYTFNTHPGCTNVDSPNFNFQANMDDDSCDAKVTNFTFGGVYQECTELSGDVLCQNLEQKNLLTGDFSCPPGYSPVHLLSQTHEEGYSRLECKKKCTLKIFCKTVCEDVFRVAKAEFRAYWCVAAGQVPDNSGLLFGGVFTDKTINPMTNAQSCPAGYIPLNLFESLKVCVSLDYELGFKFSVPFGGFFSCIMGNPLVNSDTAKDVRAPSLKKCPGGFSQHLAVISDGCQVSYCVKAGIFTGGSLLPVRLPPYTKPPLMSQVATNTVIVTNSETARSWIKDPQTNQWKLGEPLELRRAMTVIHGDSNGMSGG
notes: Perforin-2 (PFN2, MPEG1), mouse (printed as mPFN2), ectodomain, UniProt A1L314 residues 20-652; Applied as monomers (0.043 mg/ml) and self-assembles on the support; The 1D4 tag is inferred from the resin; also called MPEG1; source: HEK293T or HEK293S cells, transient transfection; purified from the media using anti-1D4 antibody-coupled agarose resin
stoichiometry N: 16 subunits
